Laboratory results from patent US7592156B2, “Synthetic dog/human chimeric C-C chemokine receptor 2B” (Wyeth, priority 2006, dated 2009).

Key:
[1] = target: T1, chimeric dog-human CCR2B (Homo sapiens, UniProt P41597, A111V/A286I/C181V/C75S/D36S/E105G/E278K/F108L/F271S/G175R/G191S/G197A/G224A/G273N/G41A/I128T/I163V/I208V/I217V/I263L/I300V/I40V/I93L/K180T/K183I/K38R/L115S/L166M/L274V/L76M/L95I/L97F/N110E/N199K/N207S/N266S/P195Q/Q43G/R196Q/R240K/R243K/S101Y/T247V/T257A/T287M/V107L/V162G/V173L/V187F/V189S/V244L/Y188S/Y193Q/Y259N); experiment: FLIPR calcium mobilization agonist assay in CHO-K1 cells expressing chimeric dog-human CCR2B; assay type: cell-based
T1 construct: expressed in transfected cells
T1 sequence (P41597 1-360 isoform P41597-2 D36S/K38R/I40V/G41A/Q43G/C75S/L76M/I93L/L95I/L97F/S101Y/E105G/V107L/F108L/N110E/A111V/L115S/I128T/V162G/I163V/L166M/V173L/G175R/K180T/C181V/K183I/V187F/Y188S/V189S/G191S/Y193Q/P195Q/R196Q/G197A/N199K/N207S/I208V/I217V/G224A/R240K/R243K/V244L/T247V/T257A/Y259N/I263L/N266S/F271S/G273N/L274V/E278K/A286I/T287M/I300V): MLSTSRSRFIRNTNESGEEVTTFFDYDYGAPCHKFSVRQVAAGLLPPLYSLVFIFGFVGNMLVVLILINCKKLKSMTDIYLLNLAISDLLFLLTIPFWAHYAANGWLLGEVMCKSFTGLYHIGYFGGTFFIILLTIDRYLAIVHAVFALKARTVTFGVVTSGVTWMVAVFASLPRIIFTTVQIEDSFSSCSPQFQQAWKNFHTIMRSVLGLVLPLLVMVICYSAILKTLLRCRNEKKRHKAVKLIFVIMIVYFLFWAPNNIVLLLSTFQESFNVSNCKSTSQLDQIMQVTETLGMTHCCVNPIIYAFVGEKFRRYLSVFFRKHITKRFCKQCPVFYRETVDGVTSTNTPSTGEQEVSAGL
Procedure: The chimeric CCR2B/cDNA3.1 plasmid of Example 1 was expressed in CHO-K1 cells using the Lipofectamine-Plus reagent (Invitrogen, Carlsbad, Calif., USA) according to manufacturer's instructions, and the resulting stable cell lines following selection with the antibiotic G418 were assayed for MCP-1-dependent calcium mobilization in a FLIPR assay. Cells were plated at 15,000 per well in a 384-well assay plate one day prior to assay. Calcium-3 indicator dye (Molecular Devices, Sunnyvale, Calif., USA) was added 1 hr prior to assay, and cells were incubated at 37° C. For the agonist assay, human MCP-1 was added to cells, followed immediately by reading of calcium mobilization on the FLIPR. RFU counts (Max-Min) were recorded for each MCP-1 concentration assayed. For the antagonist assay, the antagonist was added to the cells 20 min prior to addition of MCP-1. The MCP-1 activation of calcium mobilization in CCR2B/CHOK1 cells of Example 2 was extended to include examination of the effects of mouse and canine MCP-1 (FIG. 4A). […] The qualitative similarity of the results in the CHOK1 cells expressing the chimeric receptor and THP-1 cells, with their endogenous expression of the human receptor, lends evidence that the chimeric receptor faithfully recapitulates the activation pharmacology of the native receptor.

[2] = target: T2, human CCR2B (Homo sapiens, UniProt P41597); experiment: FLIPR calcium mobilization agonist assay in THP-1 cells; assay type: cell-based; conditions: endogenous human CCR2B expression
T2 construct: THP-1 cells, with their endogenous expression of the human receptor; endogenous in cells; host or cells: THP-1 (human monocyte cell line)
T2 sequence (P41597 1-360 isoform P41597-2): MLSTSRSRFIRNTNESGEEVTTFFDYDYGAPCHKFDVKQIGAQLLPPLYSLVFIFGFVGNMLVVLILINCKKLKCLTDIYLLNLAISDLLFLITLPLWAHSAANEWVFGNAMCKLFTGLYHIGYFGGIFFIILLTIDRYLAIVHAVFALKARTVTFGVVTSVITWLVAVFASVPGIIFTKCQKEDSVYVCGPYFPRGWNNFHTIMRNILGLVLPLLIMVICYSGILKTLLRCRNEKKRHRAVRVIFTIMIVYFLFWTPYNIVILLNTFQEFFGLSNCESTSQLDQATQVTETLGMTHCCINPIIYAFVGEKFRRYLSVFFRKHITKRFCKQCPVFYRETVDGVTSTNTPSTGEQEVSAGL

| Substance | EC50 [1] | EC50 [2] |
| --- | --- | --- |
| cMCP-1: canine monocyte chemoattractant protein-1 (chemokine) | 138 nM | 53 nM |
| mouse MCP: mouse monocyte chemoattractant protein-1 (chemokine) | 38 nM | 30 nM |
